From publication PMC4596688, “Structural determinants of nuclear export signal orientation in binding to exportin CRM1” (eLife, 2015)

Experiments:
[1] = molecular target: Full-length human CRM1 (HsCRM1) (UniProt O14980); assay: GST pull-down, SDS/PAGE band intensity; conditions: excess ScRanGTP; triplicate experiments; parent: est. 100; read off a plot
[2] = molecular target: Full-length human CRM1 (HsCRM1) (UniProt O14980); assay: competition differential bleaching monitored with a microscale thermophoresis instrument; MBP-NESs serially diluted from 100 μM to 3 nM with 40 nM FITC-PKI^NES, mixed 1:1 with 300 nM HsCRM1 and 120 μM ScRan-GTP; TB buffer with 15% glycerol, 0.05% Tween-20; 1.5 hr, room temperature

Sequence of Full-length human CRM1 (HsCRM1) (O14980 whole entry): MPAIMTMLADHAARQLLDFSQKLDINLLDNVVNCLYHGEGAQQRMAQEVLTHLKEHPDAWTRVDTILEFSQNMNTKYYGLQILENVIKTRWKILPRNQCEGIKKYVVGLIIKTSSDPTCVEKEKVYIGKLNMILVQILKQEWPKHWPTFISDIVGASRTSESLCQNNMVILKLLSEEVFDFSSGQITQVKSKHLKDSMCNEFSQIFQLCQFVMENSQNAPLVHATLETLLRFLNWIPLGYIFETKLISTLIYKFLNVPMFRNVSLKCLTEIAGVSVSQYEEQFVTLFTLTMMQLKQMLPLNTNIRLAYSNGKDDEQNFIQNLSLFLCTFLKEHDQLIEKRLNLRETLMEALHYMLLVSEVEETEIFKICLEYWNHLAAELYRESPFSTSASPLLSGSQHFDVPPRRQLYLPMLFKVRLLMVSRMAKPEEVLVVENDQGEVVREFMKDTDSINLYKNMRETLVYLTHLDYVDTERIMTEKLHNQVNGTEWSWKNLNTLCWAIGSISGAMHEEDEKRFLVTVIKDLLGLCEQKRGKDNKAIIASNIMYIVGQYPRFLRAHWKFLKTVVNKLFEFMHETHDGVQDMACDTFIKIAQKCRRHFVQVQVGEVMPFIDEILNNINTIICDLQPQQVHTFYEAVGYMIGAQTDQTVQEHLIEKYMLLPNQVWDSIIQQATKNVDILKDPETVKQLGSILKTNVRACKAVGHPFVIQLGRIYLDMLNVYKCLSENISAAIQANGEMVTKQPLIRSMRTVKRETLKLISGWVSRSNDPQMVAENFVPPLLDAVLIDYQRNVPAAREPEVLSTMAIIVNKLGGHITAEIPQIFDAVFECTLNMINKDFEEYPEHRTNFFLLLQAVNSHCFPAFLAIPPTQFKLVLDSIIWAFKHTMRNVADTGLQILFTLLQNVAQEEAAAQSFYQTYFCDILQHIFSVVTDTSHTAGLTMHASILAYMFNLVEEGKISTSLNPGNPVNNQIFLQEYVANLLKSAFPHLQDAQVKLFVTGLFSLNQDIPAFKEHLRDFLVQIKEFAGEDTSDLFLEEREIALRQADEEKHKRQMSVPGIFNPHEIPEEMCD

Substance | percent of parent [1] [%] | Kd [2] [µM]
GST-hRio2NES-R F13A | 17 | –
GST-hRio2NES-R F13M | 110 | –
GST-hRio2NES-R F13P | 33 | –
GST-hRio2NES-R F13W | 31 | –
GST-hRio2NES-R F13Y | 17 | –
GST-hRio2NES-R M11A | 17 | –
GST-hRio2NES-R M11F | 53 | –
GST-hRio2NES-R M11I | 57 | –
GST-hRio2NES-R M11P | 15 | –
GST-hRio2NES-R M11V | 17 | –
GST-hRio2NES-R M11W | 80 | –
GST-hRio2NES-R M11Y | 10 | –
MBP-CPEB4^NES (peptide) | – | 0.59
MBP-CPEB4^NES-R (peptide) | – | 0.78
MBP-hRio2^NES (peptide) | – | 2.2
MBP-hRio2^NES-R (peptide) | – | 2.4
